Among the data in patent US20220112276A1 (Janssen / Centocor, published 2022) are Kd values, retold here.

T1: mouse pIgR extracellular domain (ECD) (mouse, UniProt O70570 19-645)
T1 construct: Bought from R&D Systems (Cat 2800-PG-050); also called mpIgR ECD
T1 sequence: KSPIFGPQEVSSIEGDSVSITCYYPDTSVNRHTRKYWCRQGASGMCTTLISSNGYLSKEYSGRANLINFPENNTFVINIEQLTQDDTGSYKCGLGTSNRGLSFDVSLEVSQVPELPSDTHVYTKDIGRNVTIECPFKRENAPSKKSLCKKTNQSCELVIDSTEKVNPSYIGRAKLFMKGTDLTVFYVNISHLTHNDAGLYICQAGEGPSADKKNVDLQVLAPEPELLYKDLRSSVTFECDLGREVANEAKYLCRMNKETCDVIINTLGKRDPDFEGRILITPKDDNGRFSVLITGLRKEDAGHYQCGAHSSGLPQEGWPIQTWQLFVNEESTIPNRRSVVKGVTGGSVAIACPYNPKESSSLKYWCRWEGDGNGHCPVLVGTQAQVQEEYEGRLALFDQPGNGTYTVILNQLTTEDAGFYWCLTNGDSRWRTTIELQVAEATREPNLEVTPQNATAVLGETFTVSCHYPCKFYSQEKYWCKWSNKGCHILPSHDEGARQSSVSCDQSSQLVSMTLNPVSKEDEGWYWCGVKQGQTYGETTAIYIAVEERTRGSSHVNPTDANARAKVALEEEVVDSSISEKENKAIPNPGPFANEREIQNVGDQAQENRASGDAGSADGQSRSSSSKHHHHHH

T2: rat pIgR extracellular domain (rat, UniProt P15083 19-643)
T2 construct: extracellular domain
T2 sequence (looked up): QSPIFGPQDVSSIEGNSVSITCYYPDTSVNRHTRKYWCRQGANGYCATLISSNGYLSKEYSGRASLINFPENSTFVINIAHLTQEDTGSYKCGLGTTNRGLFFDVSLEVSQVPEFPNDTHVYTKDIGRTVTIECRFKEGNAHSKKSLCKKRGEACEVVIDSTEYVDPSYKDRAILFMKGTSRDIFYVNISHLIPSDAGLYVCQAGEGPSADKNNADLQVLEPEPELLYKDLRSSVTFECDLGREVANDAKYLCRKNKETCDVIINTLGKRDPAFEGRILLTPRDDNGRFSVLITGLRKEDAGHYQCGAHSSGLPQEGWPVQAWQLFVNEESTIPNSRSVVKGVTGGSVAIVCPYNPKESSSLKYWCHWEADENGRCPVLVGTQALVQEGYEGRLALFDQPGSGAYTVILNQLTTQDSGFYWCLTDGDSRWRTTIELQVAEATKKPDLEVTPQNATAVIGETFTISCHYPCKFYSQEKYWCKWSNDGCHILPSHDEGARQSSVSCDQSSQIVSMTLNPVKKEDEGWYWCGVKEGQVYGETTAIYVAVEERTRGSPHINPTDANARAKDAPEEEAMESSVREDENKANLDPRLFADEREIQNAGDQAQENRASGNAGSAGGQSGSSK

B1: 02B12R3 VHH Mono-Fc (Fc fusion)
chain: QVQLVESGGGWVQTGGSLRLSCAASGRTVSSYYMGWFRQTPGKEREFVAAISWVGSSTYKYYTDSAKGRFTISRDNAKNTVYLQMNSLKPEDTAVYYCAARPRVGDPRSRYDDDNWGQGTQVTVSSSPAPELLGGPSVFLFPPKPKDTLMISRTPEVTCVVVDVSHEDPEVKFNWYVDGVEVHNAKTKPREEQYNSTYRVVSVLTVLHQDWLNGKEYKCKVSNKALPAPIEKTISKAKGQPREPQVYTKPPSREEMTKNQVSLSCLVKGFYPSDIAVEWESNGQPENNYKTTVPVLDSDGSFRLASYLTVDKSRWQQGNVFSCSVMHEALHNHYTQKSLSLSPGK
B2: 01A06R3LS VHH Mono-Fc (Fc fusion)
chain: EVQLVESGGGVVQAEDSLRLSCAASGLPFSSSRMGWFRQAPGKEREFVAAIGWSGRSTYKYYADSVKGRFTVSGDNAKKTLDLQMKDLKPEDTAVYYCAAHPDYYGDPRTSGAYRYWGQGTQVTVSSSPAPELLGGPSVFLFPPKPKDTLMISRTPEVTCVVVDVSHEDPEVKFNWYVDGVEVHNAKTKPREEQYNSTYRVVSVLTVLHQDWLNGKEYKCKVSNKALPAPIEKTISKAKGQPREPQVYTKPPSREEMTKNQVSLSCLVKGFYPSDIAVEWESNGQPENNYKTTVPVLDSDGSFRLASYLTVDKSRWQQGNVFSCSVMHEALHNHYTQKSLSLSPGK
B3: 01B07R3L VHH Mono-Fc (Fc fusion)
chain: B2 chain with A40V, K60R, A63D, K79N, D87G, H101D, D103N, P108V, A113T, R115Q
B4: 01F04R2LS VHH Mono-Fc (Fc fusion)
chain: EVQLVESGGGLVQTGGSLRLSCAASGRTFSSYAMGWFRQAPGKEPERDFVAALRWSNDRTYYKYYADSVKGRFTISRDNAKNTVYLQMNTLKPEDTAVYYCAGGNYFSDPRVDKEYNYWGQGTQVTVSSSPAPELLGGPSVFLFPPKPKDTLMISRTPEVTCVVVDVSHEDPEVKFNWYVDGVEVHNAKTKPREEQYNSTYRVVSVLTVLHQDWLNGKEYKCKVSNKALPAPIEKTISKAKGQPREPQVYTKPPSREEMTKNQVSLSCLVKGFYPSDIAVEWESNGQPENNYKTTVPVLDSDGSFRLASYLTVDKSRWQQGNVFSCSVMHEALHNHYTQKSLSLSPGK
B5: 01G09R3LS VHH Mono-Fc (Fc fusion)
chain: EVQLVESGGGLVQAGDSLRLSCAASGRTFPTYAMGWFRQAPGKEREFVATIRWSGSTQYKYYADFVKGRFTISRDNAKNTVYLQMDSLKPEDTAVYYCAATTLLTDPRALNAYAYWGQGTQVTVSSSPAPELLGGPSVFLFPPKPKDTLMISRTPEVTCVVVDVSHEDPEVKFNWYVDGVEVHNAKTKPREEQYNSTYRVVSVLTVLHQDWLNGKEYKCKVSNKALPAPIEKTISKAKGQPREPQVYTKPPSREEMTKNQVSLSCLVKGFYPSDIAVEWESNGQPENNYKTTVPVLDSDGSFRLASYLTVDKSRWQQGNVFSCSVMHEALHNHYTQKSLSLSPGK
B6: 01A07R3LS VHH Mono-Fc (Fc fusion)
chain: B5 chain with E1Q, T105G, A112E
B7: 01A09R3L VHH Mono-Fc (Fc fusion)
chain: EVQLVESGGGVVQAEDSLRLSCAASGLSFSLSRMGWFRQAPGKEREFVATIEWSGRSTYKYYDDSVKGRFAVSGDNTKNTMNLQMKGLNLEDTGVYYCAANPNNYGDPRTPGAYQYWGQGTQVTVSSSPAPELLGGPSVFLFPPKPKDTLMISRTPEVTCVVVDVSHEDPEVKFNWYVDGVEVHNAKTKPREEQYNSTYRVVSVLTVLHQDWLNGKEYKCKVSNKALPAPIEKTISKAKGQPREPQVYTKPPSREEMTKNQVSLSCLVKGFYPSDIAVEWESNGQPENNYKTTVPVLDSDGSFRLASYLTVDKSRWQQGNVFSCSVMHEALHNHYTQKSLSLSPGK
B8: 01B12R2 VHH Mono-Fc (Fc fusion)
chain: EVQLVESGGGLVQAGGSLRLSCAASGRTFSSGIMGWFRQAPGKEREFVAAIEWSGGNTYKYYAESVKGRFAISRDNAKTTAYLQMGSLNPEDTALYYCAADESPSRYIDLRRPAPYHYWGQGTLVTVSSSPAPELLGGPSVFLFPPKPKDTLMISRTPEVTCVVVDVSHEDPEVKFNWYVDGVEVHNAKTKPREEQYNSTYRVVSVLTVLHQDWLNGKEYKCKVSNKALPAPIEKTISKAKGQPREPQVYTKPPSREEMTKNQVSLSCLVKGFYPSDIAVEWESNGQPENNYKTTVPVLDSDGSFRLASYLTVDKSRWQQGNVFSCSVMHEALHNHYTQKSLSLSPGK
B9: 01B06R2LS VHH Mono-Fc (Fc fusion)
chain: QVQLVESGGGLVQTGGSLRLSCAASGRTFSPYAMGWFRQAPGKEREFVAAIRWSGATTYKYVGDSVQGRFTISRDAAGNTVYLQMNSVKPEDTAVYYCAADRVPKDISIDPRNPKDWDYWGKGTLVTVSSSPAPELLGGPSVFLFPPKPKDTLMISRTPEVTCVVVDVSHEDPEVKFNWYVDGVEVHNAKTKPREEQYNSTYRVVSVLTVLHQDWLNGKEYKCKVSNKALPAPIEKTISKAKGQPREPQVYTKPPSREEMTKNQVSLSCLVKGFYPSDIAVEWESNGQPENNYKTTVPVLDSDGSFRLASYLTVDKSRWQQGNVFSCSVMHEALHNHYTQKSLSLSPGK
B10: 01H01R2LS VHH Mono-Fc (Fc fusion)
chain: B9 chain with Q1E, D64G, L125Q
B11: 01B08R2 VHH Mono-Fc (Fc fusion)
chain: EVQLVESGGRLVQAGGSLRLSCAASGLTRSDYAMGWFRQAPGKEREFVATLKWSEGSRFMYRAEDVKGRFTISSGAAKTTVWLDMDALNPEDTAVYYCAAGFNVGFVRRASEYNFWGQGTLVTVSSSPAPELLGGPSVFLFPPKPKDTLMISRTPEVTCVVVDVSHEDPEVKFNWYVDGVEVHNAKTKPREEQYNSTYRVVSVLTVLHQDWLNGKEYKCKVSNKALPAPIEKTISKAKGQPREPQVYTKPPSREEMTKNQVSLSCLVKGFYPSDIAVEWESNGQPENNYKTTVPVLDSDGSFRLASYLTVDKSRWQQGNVFSCSVMHEALHNHYTQKSLSLSPGK

Residue numbers refer to the chain shown, from its start.

For the first assay, the target named is T3, human pIgR extracellular domain (ECD) (human, UniProt P01833 19-638).
T3 construct: Bought from R&D Systems (Cat 2717-PG-050); also called hpIgR ECD
T3 sequence (P01833 other isoform, or with tags, fused parts or gaps): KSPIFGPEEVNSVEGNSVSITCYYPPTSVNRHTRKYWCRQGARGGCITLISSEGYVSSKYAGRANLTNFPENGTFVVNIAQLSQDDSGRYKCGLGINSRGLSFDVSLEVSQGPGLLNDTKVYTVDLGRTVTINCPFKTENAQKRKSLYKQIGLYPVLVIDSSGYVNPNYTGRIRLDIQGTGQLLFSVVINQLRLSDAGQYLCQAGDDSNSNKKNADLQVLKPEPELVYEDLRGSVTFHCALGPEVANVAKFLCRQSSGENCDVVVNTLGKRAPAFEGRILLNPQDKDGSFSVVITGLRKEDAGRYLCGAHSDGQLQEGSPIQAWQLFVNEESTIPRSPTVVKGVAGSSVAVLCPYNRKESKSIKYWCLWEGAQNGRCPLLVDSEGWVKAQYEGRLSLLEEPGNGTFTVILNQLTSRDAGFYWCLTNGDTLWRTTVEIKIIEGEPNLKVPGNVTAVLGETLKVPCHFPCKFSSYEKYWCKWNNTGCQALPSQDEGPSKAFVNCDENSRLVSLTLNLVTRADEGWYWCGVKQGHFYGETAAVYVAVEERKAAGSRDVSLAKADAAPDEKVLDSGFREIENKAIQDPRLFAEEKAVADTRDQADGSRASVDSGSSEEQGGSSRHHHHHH
Kind of assay: SPR, VHH captured by anti-Fc, ECD analyte. In outline: (§1)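 Anti-human Fc surface captured VHH at 0.5 ug/ml (~200-300 RU); running buffer HBSP with 100 ug/ml BSA, 30 μL/min. Single-cycle kinetics with ECD injected low to high from 30 nM in 3-fold dilutions, dissociation 30 min. Double-referenced data globally fit to 1:1 Langmuir model for kon, koff, KD.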
Background: Surface plasmon resonance follows binding to a sensor surface in real time, without labels.
Molecule B1 came in with a Kd of 16.6 nM.

Consider B2, for which the Kd stood at 29 nM.

In turn, B3 came in with a Kd of 58.7 nM.

In turn, B4 showed a Kd of 35.8 nM.

In turn, B5 gave a Kd of 5.77 nM.

On to B6, for which the Kd was found to be 28.6 nM.

For the molecule B7, the Kd came to 0.681 nM.

B8 had a Kd of 4.48 nM.

Turning to B9, the Kd worked out at 8.46 nM.

In turn, B10 displayed a Kd of 6.91 nM.

With B11, the Kd was 1.05 nM.

The next assay deals with T1, mouse pIgR extracellular domain (ECD). Put plainly: SPR, VHH captured by anti-Fc, ECD analyte. In outline: as §1
In the case of B1, the Kd was 4.32 nM.

The molecule B2 had a Kd of 2.26 nM.

Molecule B3 gave a Kd of 3.48 nM.

Regarding B4, the Kd came out at 9.03 nM.

Consider B5, for which the affinity, expressed as Kd, was 5.71 nM.

B6 returned a Kd of 8.93 nM.

Take B7: the Kd is 0.301 nM.

As to B8, the equilibrium dissociation constant (Kd) was 107 nM.

B9: binding was put at a Kd of 14.8 nM.

Molecule B10 gave a Kd of 12.8 nM.

For the molecule B11, the Kd amounted to 586 nM.

Another assay deals with T4, cynomolgus monkey pIgR extracellular domain (cynomolgus monkey, UniProt A0A2K5WMU9 19-638).
T4 construct: extracellular domain
T4 sequence (A0A2K5WMU9 entry or part of it): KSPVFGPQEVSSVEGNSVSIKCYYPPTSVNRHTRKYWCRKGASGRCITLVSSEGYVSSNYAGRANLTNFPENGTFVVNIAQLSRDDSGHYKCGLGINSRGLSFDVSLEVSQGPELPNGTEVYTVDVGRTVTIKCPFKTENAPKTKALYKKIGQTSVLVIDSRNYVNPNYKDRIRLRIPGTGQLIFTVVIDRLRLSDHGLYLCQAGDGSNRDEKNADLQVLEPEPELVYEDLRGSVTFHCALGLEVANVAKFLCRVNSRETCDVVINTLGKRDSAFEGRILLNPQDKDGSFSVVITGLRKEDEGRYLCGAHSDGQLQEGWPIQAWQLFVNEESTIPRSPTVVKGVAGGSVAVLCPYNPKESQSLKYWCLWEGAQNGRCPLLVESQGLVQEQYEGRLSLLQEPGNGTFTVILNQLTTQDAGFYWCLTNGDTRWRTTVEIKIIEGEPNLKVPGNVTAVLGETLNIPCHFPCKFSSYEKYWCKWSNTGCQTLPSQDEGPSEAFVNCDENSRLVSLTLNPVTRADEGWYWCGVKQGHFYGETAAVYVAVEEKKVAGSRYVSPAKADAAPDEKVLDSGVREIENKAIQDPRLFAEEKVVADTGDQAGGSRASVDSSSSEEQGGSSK
Kind of assay: SPR, VHH captured by anti-Fc, ECD analyte. In outline:
as §1
In the case of B1, the Kd was 31.5 nM.

Regarding B2, binding was put at a Kd of 112 nM.

Molecule B3 returned a Kd of 138 nM.

B4 had a Kd of 28 nM.

For B5, the Kd is 10 nM.

Consider B6, for which the Kd amounted to 10.1 nM.

In turn, B7 showed a Kd of 0.353 nM.

B8: binding was put at a Kd of 6.54 nM.

Molecule B9 gave a Kd of 111 nM.

Take B10: the affinity, expressed as Kd, was 123 nM.

Take B11: the Kd amounted to 219 nM.

Another assay concerns the target T2, rat pIgR extracellular domain. Put plainly: SPR, VHH captured by anti-Fc, ECD analyte. An outline of the steps: as §1
For the molecule B1, binding was characterised by a dissociation constant (Kd) of 3.44 nM.

For B2, binding was put at a Kd of 9.23 nM.

Regarding B3, the affinity, expressed as Kd, was 8.51 nM.

On to B4, for which the Kd stood at 8.9 nM.

Molecule B5 came in with a Kd of 4.27 nM.

The molecule B6 registered a Kd of 6.85 nM.

With B7, the Kd is 0.234 nM.

In turn, B8 came in with a Kd of 18.2 nM.

As for B9, the Kd is 33.2 nM.

Consider B10, for which the Kd was 18.1 nM.

B11 had a Kd of 116 nM.

What is called Kd is the free concentration of one partner at which half of the binding sites on the other are occupied at equilibrium, for simple one-to-one binding.
